Read-outs that look alike come from different tables or passages of the source. No end group written: not given here.
Assays:
human NMUR1 [1] = molecular target: T1, human NMUR1 (human, UniProt Q9HB89 1-426); assay: cell-based or functional assay
T1 sequence (looked up): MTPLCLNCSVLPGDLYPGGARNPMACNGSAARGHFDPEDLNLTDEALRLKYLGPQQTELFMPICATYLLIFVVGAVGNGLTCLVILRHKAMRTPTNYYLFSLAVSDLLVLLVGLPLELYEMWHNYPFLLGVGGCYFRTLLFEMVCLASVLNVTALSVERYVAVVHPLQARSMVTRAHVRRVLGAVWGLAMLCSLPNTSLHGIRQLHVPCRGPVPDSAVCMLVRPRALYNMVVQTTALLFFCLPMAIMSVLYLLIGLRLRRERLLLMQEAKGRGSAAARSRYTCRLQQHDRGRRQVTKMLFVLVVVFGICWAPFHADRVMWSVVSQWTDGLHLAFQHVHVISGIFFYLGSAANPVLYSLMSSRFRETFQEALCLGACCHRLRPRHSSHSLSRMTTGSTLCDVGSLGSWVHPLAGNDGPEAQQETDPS

human NMUR2 [2] = molecular target: T2, human NMUR2 (human, UniProt Q9GZQ4 1-415); assay: cell-based or functional assay
T2 sequence (Q9GZQ4 whole entry): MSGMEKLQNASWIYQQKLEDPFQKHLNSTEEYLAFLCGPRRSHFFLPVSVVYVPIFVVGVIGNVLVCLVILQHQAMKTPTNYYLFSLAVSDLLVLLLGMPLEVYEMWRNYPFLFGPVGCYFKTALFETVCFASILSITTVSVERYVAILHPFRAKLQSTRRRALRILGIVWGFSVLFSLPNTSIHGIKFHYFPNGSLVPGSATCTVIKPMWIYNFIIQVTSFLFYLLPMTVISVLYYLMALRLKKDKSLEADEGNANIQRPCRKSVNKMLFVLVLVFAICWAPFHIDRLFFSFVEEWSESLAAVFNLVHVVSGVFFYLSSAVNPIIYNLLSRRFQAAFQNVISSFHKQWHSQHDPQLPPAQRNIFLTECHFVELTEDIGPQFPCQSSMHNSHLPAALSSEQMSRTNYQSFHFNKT

mouse NMUR1-ATG [3] = molecular target: T3, mouse NMUR1-ATG (mouse, UniProt O55040 1-428); assay: cell-based or functional assay
T3 sequence (looked up): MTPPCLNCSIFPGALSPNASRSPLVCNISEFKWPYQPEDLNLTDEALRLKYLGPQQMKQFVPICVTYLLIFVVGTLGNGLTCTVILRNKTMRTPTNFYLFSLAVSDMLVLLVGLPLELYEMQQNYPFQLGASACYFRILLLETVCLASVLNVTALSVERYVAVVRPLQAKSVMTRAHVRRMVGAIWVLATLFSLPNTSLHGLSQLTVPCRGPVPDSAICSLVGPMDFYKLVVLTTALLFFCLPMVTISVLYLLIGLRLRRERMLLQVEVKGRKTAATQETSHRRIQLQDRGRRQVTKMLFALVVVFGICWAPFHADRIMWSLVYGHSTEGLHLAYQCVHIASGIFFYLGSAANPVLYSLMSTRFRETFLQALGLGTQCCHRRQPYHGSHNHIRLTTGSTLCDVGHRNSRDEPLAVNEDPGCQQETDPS

mouse NMUR1-CTG [4] = molecular target: T4, mouse NMUR1-CTG (mouse, UniProt O55040 1-428); assay: cell-based or functional assay
T4 sequence (looked up): T3 sequence (looked up)

mouse NMUR2 [5] = molecular target: T5, mouse NMUR2 (mouse, UniProt Q8BZ39 1-395); assay: cell-based or functional assay
T5 sequence (Q8BZ39 whole entry): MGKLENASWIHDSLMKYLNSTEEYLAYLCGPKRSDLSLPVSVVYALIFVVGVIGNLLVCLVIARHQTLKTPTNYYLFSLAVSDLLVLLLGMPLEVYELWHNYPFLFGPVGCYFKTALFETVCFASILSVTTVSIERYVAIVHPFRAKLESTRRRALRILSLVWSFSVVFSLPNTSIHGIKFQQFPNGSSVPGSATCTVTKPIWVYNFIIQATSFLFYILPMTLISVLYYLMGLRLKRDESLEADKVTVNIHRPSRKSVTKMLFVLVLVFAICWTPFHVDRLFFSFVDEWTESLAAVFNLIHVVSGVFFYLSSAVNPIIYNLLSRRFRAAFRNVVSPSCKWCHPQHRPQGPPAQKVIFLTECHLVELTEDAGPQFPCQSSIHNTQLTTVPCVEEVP

rat NMUR1-ATG [6] = molecular target: T6, rat NMUR1-ATG (rat, UniProt Q9JJI5 1-425); assay: cell-based or functional assay
T6 sequence (looked up): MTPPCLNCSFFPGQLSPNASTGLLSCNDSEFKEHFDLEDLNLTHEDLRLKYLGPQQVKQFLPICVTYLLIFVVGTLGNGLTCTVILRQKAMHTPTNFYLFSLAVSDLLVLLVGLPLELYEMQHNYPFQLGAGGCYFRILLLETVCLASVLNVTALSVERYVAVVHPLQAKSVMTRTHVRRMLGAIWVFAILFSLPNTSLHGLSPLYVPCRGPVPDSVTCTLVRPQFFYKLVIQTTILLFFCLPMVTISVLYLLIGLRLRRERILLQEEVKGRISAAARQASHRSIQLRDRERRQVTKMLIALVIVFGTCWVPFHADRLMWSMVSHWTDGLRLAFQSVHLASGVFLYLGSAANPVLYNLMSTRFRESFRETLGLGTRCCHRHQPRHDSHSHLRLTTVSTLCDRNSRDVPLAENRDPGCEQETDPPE

rat NMUR1-TTG [7] = molecular target: T7, rat NMUR1-TTG (rat, UniProt Q9JJI5 1-425); assay: cell-based or functional assay
T7 sequence (looked up): T6 sequence (looked up)

rat NMUR2 [8] = molecular target: T8, rat NMUR2 (rat, UniProt Q9ESQ4 1-395); assay: cell-based or functional assay
T8 sequence (Q9ESQ4 whole entry): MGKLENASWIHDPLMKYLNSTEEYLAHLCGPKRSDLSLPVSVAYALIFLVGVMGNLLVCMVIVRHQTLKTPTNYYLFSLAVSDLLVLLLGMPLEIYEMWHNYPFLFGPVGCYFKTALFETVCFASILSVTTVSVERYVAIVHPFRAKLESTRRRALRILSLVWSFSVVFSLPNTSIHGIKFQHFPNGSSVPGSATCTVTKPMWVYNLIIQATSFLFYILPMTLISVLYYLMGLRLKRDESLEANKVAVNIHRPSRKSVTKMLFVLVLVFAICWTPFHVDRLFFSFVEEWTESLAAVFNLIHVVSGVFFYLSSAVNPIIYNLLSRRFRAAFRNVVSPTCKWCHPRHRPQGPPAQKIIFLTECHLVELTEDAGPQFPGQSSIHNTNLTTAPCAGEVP

human NMUR1 [9] = molecular target: T1, human NMUR1; assay: cell-based or functional assay; remark: listed apart in the source
human NMUR2 [10] = molecular target: T2, human NMUR2; assay: cell-based or functional assay; remark: listed apart in the source
mouse NMUR1-CTG [11] = molecular target: T4, mouse NMUR1-CTG; assay: cell-based or functional assay; remark: listed apart in the source
mouse NMUR2 [12] = molecular target: T5, mouse NMUR2; assay: cell-based or functional assay; remark: listed apart in the source
rat NMUR1-ATG [13] = molecular target: T6, rat NMUR1-ATG; assay: cell-based or functional assay; remark: listed apart in the source
rat NMUR2 [14] = molecular target: T8, rat NMUR2; assay: cell-based or functional assay; remark: listed apart in the source
human NMUR1 [15] = molecular target: T1, human NMUR1; assay: 125I-hNMU-25 displacement, cell membranes
human NMUR2 [16] = molecular target: T2, human NMUR2; assay: 125I-hNMU-25 displacement, cell membranes
mouse NMUR1-ATG [17] = molecular target: T3, mouse NMUR1-ATG; assay: 125I-hNMU-25 displacement, cell membranes
mouse NMUR1-CTG [18] = molecular target: T4, mouse NMUR1-CTG; assay: 125I-hNMU-25 displacement, cell membranes
mouse NMUR2 [19] = molecular target: T5, mouse NMUR2; assay: 125I-hNMU-25 displacement, cell membranes
rat NMUR1-ATG [20] = molecular target: T6, rat NMUR1-ATG; assay: 125I-hNMU-25 displacement, cell membranes
rat NMUR1-TTG [21] = molecular target: T7, rat NMUR1-TTG; assay: 125I-hNMU-25 displacement, cell membranes
rat NMUR2 [22] = molecular target: T8, rat NMUR2; assay: 125I-hNMU-25 displacement, cell membranes

Binder: FRVDEEFQSPFASQSRGYFLFRPRN-NH2 (also called hNMU-25; native hNMU) [human NMU-25]
- IC50 (nM), functional (human NMUR1 [1]): 0.2 nM
- IC50 (nM), functional (human NMUR2 [2]): 0.8 nM
- IC50 (nM), functional (mouse NMUR1-ATG [3]): 0.9 nM
- IC50 (nM), functional (mouse NMUR1-CTG [4]): 2.9 nM
- IC50 (nM), functional (mouse NMUR2 [5]): 0.2 nM
- IC50 (nM), functional (rat NMUR1-ATG [6]): 1.3 nM
- IC50 (nM), functional (rat NMUR1-TTG [7]): 1 nM
- IC50 (nM), functional (rat NMUR2 [8]): 1.6 nM
- IC50 (nM), functional (human NMUR1 [9]): 0.2 nM
- IC50 (nM), functional (human NMUR2 [10]): 0.8 nM
- IC50 (nM), functional (mouse NMUR1-CTG [11]): 2.9 nM
- IC50 (nM), functional (mouse NMUR2 [12]): 0.2 nM
- IC50 (nM), functional (rat NMUR1-ATG [13]): 1.3 nM
- IC50 (nM), functional (rat NMUR2 [14]): 1.6 nM
- IC50 (human NMUR1 [15]): 140 pM
- IC50 (human NMUR2 [16]): 56 pM
- IC50 (mouse NMUR1-ATG [17]): 400 pM
- IC50 (mouse NMUR1-CTG [18]): 150 pM
- IC50 (mouse NMUR2 [19]): 200 pM
- IC50 (rat NMUR1-ATG [20]): 1200 pM
- IC50 (rat NMUR1-TTG [21]): 200 pM
- IC50 (rat NMUR2 [22]): 600 pM

Source: patent US20070244048A1 (published 2007)
